Measured values: the DeepSol protein solubility set

assay: soluble on expression in E. coli; label from the status in PepcDB or PDB records

Sequence	soluble on expression in E. coli
MSLRDLKTLLIVIDGVSYSVFNQFRYNLDTMNNLIENGSFGKLESVFPTITPVALASLFTGYLPLNHGITSTKIFIKGNSLSKPLSAHSSTPLKVDPIWYLLAKKGYKVVVASAPQALPDKWKLKNLTLFDPYKSKIKECSDGALLNIGNTTINEVNFDIESNNNEYTIKITDIENNTLSLKLRQNEWTSPLEVIMGCKGKEMKGTFRLKGLSNGVYLTPVSFLIPSWSNNQELQNEIWENVVKKYGMLLDGDYISLKSNIIGFSEYYETLKFAYEFFYNYSLYLLKREEWDFAITYLPIVDNIQHLLFGVDDSQSLDYVFQVYKMADNFVKAHIELADNIIICSDHGINKVKKRLYLNKFLEELNVLKTVDDKKIDWKRTKAYYGGGGIIRINLREREKFGIVGKKEFNKLIKYLTINLERLEDPDTGERIFTVIYSNETPASDRQGDIMIDGVNPKYSISSNIEKDTIFENVIPYRTTTADHGYYRNDDINGIIIFYGKNFTKKQVNMKIVDVTPTILKLYGINCKSDGKIVNEVFKNGHADSTKEGHHHHHH	not soluble
MYPNQQFMRGKVRDLPDSGVIYLNRIKPIAQEFQQETTAEVEVSVQNIPRHGKSPSSFEKYNSVEERSPTRLPMITTSTTAPKILIEKKVNQQKQEFQKSKQSQLSVPEEAELDRLLDDLLKSDNIPKVILDFFFKMKMIQNFQKTLQLAKIGRRSSKRHVGAYKPKVISFDGTARVNKQHARAHASPTSIGLNPIKTYAYGSSSSQNRGPDFDPWERMGQKALCNLLGTLLLELERIWEHMGGFIDTESPAFFVNETLAQQHIACVFCNKLFNMPQTWEKAQNALNLAGCSNLGGAKKACNGIVNNANLTESFPNMLPHNVQLKDLACKKYCKEQ	soluble
MNAGILGVGKYVPEKIVTNFDLEKIMDTSDEWIRTRTGIEERRIARDDEYTHDLAYEAAKVAIKNAGLTPDDIDLFIVATVTQEATFPSVANIIQDRLGAKNAAGMDVEAACAGFTFGVVTAAQFIKTGAYKNIVVVGADKLSKITNWDDRTTAVLFGDGAGAVVMGPVSDDHGLLSFDLGSDGSGGKYLNLDENKKIYMNGREVFRFAVRQMGEASLRVLERAGLEKEDLDLLIPHQANIRIMEASRERLNLPEEKLMKTVHKYGNTSSSSIALALVDAVEEGRIKDNDNVLLVGFGGGLTWGALIIRWGK	not soluble
MGSDKIHHHHHHMIRLFEYDSKQAQSLSQVPVHQPSIIRVIHGEKSLLWQDESVLVGQGQLLLIPAGSHISFVNRPFLGRYRAVQLLLPHDLPQGILSSTADWRDPMPVQNVSRAVDLAWNALLQSLSLSLADSVQLHYLAALLLSLPDKRSVNWLYGHTQRSVTQAALALMSVSPSAPWQQEEIADKLHMSTASLRRKLVLEDTSFRQLLVEVRLSHGLAMLQNSGEPLLQVALACGYQSAEKFSLRFKQQFGLTPAAYRRTL	not soluble
MAREGCLALNVECRGRRVKFEARMETLPNGRQILVDRVVFPDSVAVLPLVEKDGEWHVVLVRQFRPSIGKWTLEAPAGTLKEGETPEAAAARELEEEAGLKAKALVRVGGGHVSPGYSTEYIHLFLAYSLEKGEMSPEEHEVIEGVVEMRLSEALESIESGVIEDLKTIALVMAAASRVHQLEAGGGV	soluble
MGSDKIHHHHHHMVLPSMNKSVEAISNNHLQQPNKFPLINGLADVRDYYVANCLLFKLNKGSLRIENEFGEFIERSAPCLFLLEKDQTITLSMSEIEGHIDFSSLEVSYDLMQKFYKVFYSTRNYNDRELSLKTKPKYFFHADLLPGMSDTFDSILHGVACPRVCSNVSIDDHDYSYFSLMYLISAFVRKPGGFDFLERAIKITTKEKVYNIIISDLTRKWSQAEVAGKLFMSVSSLKRKLAAEEVSFSKIYLDARMNQAIKLLRMGAGNISQVATMCGYDTPSYFIAIFKRHFKITPLSFMRTMNH	not soluble
MGHHHHHHSHESVVPARMAEMARCIRERDFPSFAQLTMKDSNQFHATCLDTFPPISYLNAISWRIIHLVHRFNAHHGDTKVAYTFDAGPNAVIFTLDDTVAEFVAAVWHGFPPGSNGD	not soluble
MAHHHHHHMKKRYGNAGDWAVVTGASEGIGYAMALDLGRRGFNVCVIARTLSKLENVVEELKQLGVQGKAISFDFASATPKQYDDMFAELDKIEIAVLVNNVGVNYTYTNYFDEVDLETDLRLLKVNCESSVRMTKYVVPKMKAKRCGAIVMLGSVSAVTPAPLLCTYAGTKAFNLSFGSGLYYELKQFGIDVLAVSPNMVVSKMTQGLSSRKPRETFLMVNADRMAHQTLDKLGSVPQTPGHCNHAVLEAIVRALPTGYVSNKILETHKSIKRKAERKRE	not soluble
MAQGNPLTPEEIELLHAGDEENDNTDTLMVIRVPNDGSSATAISIPRDTYVHDENVGNLKINGVYRAYKNRKASELVNSGESDQKHIDELSKEAGRKALISSISDLTGVTVDHYAEVGLLGFVLLTNAVGGVDVCLNNDVYDEFSGADFKAGQQTLRDGQALAFVRQRHGLPRGDLDRIVRQQAFMASLVAKVLSSGTLTNPSKLSDLGEAVSRSVVIDKNWDVMSFANQLQNLAGGNVKFNTIPVTSIDGVGDYGESVVTVDKNQVHQFFDRLLNGNNGEETPTSDSEAPAENPHTSTTIDVLNATSTTGLASQVAGHLSAKHYTIGNIGNALEGMYHESQIVAADPNNEAVKAIAAELGGLPITQRNDLEHHHHHH	soluble
SGRARRAEQDARAVELGLQLVGDNLQVLHAGNPAEPALRAYLGMGLSELHVLEQPDGADALAALTDYIRDSGAQMVLAGSQAETGEGSGMLPFLLAEGLGWPLVTGLAEVESLSNGTALVLQALPRGQRRRLKVRLPFLATVDNAAPAPRQSAYGPAQRGILDVDKIETVIDDLFTAQSLQPAKPRPKRLKVIKAKSGADRMKAATAKASGGSGQVLKGLSPEQSAAAILKLLIDEGVV	not soluble
MSLTTVGIRGTFFDFVDDPWKHIGNEQAAARFHQDGLMVVTDGVIKAFGPYEKIAAAHPGVEITHIKDRIIVPGFIDGHIHLPQTRVLGAYGEQLLPWLQKSIYPEEIKYKDRNYAREGVKRFLDALLAAGTTTCQAFTSSSPVATEELFEEASRRNMRVIAGLTGIDRNAPAEFIDTPENFYRDSKRLIAQYHDKGRNLYAITPRFAFGASPELLKACQRLKHEHPDCWVNTHISENPAECSGVLVEHPDCQDYLGVYEKFDLVGPKFSGGHGVYLSNNEFRRMSKKGAAVVFCPCSNLFLGSGLFRLGRATDPEHRVKMSFGTDVGGGNRFSMISVLDDAYKVGMCNNTLLDGSIDPSRKDLAEAERNKLSPYRGFWSVTLGGAEGLYIDDKLGNFEPGKEADFVALDPNGGQLAQPWHQSLIADGAGPRTVDEAASMLFAVMMVGDDRCVDETWVMGKRLYKKSEGHHHHHH	soluble
MVDGFVQPVGEGLADQLVGHQVGYGGVQWDQCLAEVGDVAVVHFFHQAVRQVGFVEQGVEAVVAGEQRRRGEEELLGDLQHRLDPFLDAGFAGHAVGGVEQVRYLFDVGVDEAGEYVFRVLALRLDGAMQVGQAAGYQISQVTVAGFAEVRLLDEFTEGSGVHGVSHTTGMVKKRRNIAGGARRLRRDCHNRFVVMRG	not soluble
GMLTENPVLQAIRQRRSIRRYTDEAVSDEAVRLILEAGIWAPSGLNNQPCRFLVIRADDPRCDILAAHTRYGHIVRGAKVIILVFLDREAMYNEVKDHQAAGAAVQNMLLAAHALQLGAVWLGEIINQAATLLPALALDPARLSFEAAIAAGHPAQNGSSSRRPLAELLLEEPFPQPE	soluble
MTGITIFYGDNIIRYVVNTKKGLRPYFKQLPDNYQAKFELNLMSKFSNFIINKPFSAINTAARHIFSRYLLENKHLFYQYFKISNTGIDHLEQLINVNFFSSDRTSFCECNRFP	not soluble
GHMASVTRAVFGELPSGGGTVEKFQLQSDLLRVDIISWGCTITALEVKDRQGRASDVVLGFAELEGYLQKQPYFGAVIGRVANRIAKGTFKVDGKEYHLAINKEPNSLHGGVRGFDKVLWTPRVLSNGVQFSRISPDGEEGYPGELKVWVTYTLDGGELIVNYRAQASQATPVNLTNHSYFNLAGQASPNINDHEVTIEADTYLPVDETLIPTGEVAPVQGTAFDLRKPVELGKHLQDFHLNGFDHNFCLKGSKEKHFCARVHHAASGRVLEVYTTQPGVQFYTGNFLDGTLKGKNGAVYPKHSGFCLETQNWPDAVNQPRFPPVLLRPGEEYDHTTWFKFSVA	soluble
